Positions count from the first letter of the chain named.

Experiment [1] concerns the target T1, human ROBO2 (pCI-hROBO2-transfected HEK293 cells) (human).
T1 chain: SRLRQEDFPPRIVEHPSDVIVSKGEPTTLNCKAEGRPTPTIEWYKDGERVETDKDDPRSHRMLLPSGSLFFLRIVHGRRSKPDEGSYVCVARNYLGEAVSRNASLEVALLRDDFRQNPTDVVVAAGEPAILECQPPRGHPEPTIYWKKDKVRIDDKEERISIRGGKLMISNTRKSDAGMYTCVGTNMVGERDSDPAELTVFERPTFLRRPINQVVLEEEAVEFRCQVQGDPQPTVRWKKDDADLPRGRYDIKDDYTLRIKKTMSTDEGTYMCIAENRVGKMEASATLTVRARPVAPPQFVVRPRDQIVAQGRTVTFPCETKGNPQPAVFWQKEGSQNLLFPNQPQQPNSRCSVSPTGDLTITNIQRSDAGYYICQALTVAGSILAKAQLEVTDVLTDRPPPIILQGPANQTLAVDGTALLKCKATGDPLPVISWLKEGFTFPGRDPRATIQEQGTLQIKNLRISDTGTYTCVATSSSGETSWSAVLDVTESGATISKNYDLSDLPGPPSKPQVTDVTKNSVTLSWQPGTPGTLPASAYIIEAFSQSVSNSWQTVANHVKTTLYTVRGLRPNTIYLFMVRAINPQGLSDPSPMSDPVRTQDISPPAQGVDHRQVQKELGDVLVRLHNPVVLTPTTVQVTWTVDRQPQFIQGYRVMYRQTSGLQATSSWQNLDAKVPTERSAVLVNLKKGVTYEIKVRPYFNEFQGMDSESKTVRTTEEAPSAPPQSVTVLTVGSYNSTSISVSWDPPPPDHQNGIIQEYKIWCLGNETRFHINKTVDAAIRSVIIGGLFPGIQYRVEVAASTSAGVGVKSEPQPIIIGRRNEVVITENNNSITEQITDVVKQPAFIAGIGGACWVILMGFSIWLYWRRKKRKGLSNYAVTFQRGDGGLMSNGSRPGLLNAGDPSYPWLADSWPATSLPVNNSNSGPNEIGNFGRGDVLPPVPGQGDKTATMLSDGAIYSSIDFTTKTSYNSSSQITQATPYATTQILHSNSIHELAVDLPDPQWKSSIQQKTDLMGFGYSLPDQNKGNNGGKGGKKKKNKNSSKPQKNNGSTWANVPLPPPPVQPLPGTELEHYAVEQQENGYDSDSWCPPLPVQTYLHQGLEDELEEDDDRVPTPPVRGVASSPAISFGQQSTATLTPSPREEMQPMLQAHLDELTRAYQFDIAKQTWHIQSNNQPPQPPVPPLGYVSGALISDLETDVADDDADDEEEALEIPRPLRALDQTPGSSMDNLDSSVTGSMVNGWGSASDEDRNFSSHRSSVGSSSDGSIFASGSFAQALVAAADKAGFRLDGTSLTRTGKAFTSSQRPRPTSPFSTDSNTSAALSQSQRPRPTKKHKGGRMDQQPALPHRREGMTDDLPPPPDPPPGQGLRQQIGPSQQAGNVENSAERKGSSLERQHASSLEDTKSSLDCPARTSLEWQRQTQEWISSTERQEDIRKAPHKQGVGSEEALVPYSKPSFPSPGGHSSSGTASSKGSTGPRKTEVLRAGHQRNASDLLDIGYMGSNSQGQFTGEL
As to the kind of experiment: flow cytometry (FC500), HEK293 cells transfected with pCI-hROBO2, FITC goat anti-human IgG Fc; control histogram IgG (human IgG). For orientation: A flow cytometer gives signals particle by particle.

The target of experiment [2] is T2, rat ROBO4 (pCI-raROBO4-transfected HEK293 cells) (rat, UniProt Q80W87 38-949 at identity 0.93)).
T2 chain: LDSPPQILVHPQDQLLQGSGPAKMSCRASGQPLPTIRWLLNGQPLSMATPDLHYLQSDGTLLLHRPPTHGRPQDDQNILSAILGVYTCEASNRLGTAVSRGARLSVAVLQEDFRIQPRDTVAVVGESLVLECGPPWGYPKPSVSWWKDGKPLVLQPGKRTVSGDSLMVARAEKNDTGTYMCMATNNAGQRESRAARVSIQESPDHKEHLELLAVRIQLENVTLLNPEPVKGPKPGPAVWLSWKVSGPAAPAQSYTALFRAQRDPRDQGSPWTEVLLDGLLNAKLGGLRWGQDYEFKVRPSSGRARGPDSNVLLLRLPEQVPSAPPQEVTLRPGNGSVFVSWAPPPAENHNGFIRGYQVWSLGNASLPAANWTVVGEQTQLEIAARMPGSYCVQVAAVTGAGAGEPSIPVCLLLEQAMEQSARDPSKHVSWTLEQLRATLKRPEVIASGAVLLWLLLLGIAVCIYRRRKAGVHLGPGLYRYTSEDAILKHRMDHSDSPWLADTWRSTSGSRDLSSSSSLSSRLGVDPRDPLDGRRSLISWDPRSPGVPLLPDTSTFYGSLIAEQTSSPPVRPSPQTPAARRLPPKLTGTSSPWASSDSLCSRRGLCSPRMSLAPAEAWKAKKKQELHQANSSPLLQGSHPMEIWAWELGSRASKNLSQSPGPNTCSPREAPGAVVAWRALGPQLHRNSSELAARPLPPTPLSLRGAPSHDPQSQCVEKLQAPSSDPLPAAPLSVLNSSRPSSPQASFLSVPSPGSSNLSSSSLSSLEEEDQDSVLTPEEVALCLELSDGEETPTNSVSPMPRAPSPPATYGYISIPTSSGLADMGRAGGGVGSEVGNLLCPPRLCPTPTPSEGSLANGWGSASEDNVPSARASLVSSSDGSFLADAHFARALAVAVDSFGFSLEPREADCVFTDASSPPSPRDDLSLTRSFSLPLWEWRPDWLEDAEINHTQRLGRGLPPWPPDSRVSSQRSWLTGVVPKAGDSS
As to the kind of experiment: flow cytometry (FC500), HEK293 cells transfected with pCI-raROBO4, FITC goat anti-human IgG Fc; control histogram IgG (human IgG).

B1: humanized MAb1 antibody H-1143 (antibody, human IgG2, kappa, V domains shown)
VH: EVQLVESGGGLVQPGGSLRLSCAASGFTFSTYAMSWVRQAPGKGLEWVATISQGGTYTYYPDSVKGRFTISRDNAKNTLYLQMNSLRAEDTAVYYCARLIYYDYLDYWGQGTLVTVSS
VL: DIVMTQSPLSLPVTLGEPASISCRSSQSLENENKNLYLNWYLQKPGQSPQLLIYRVSNRFSGVPDRFSGSGSGTDFTLKISRVEAEDVGVYYCLQVTHVPWTFGPGTKVDIKR
notes: Human IgG2 / kappa constant regions; also called hMAb1-H2-type heavy chain + hMAb1-L2-type light chain
In the case of B1, the binding result in experiment [1] is reported as “no binding (tested: 10 µg/mL)”.

B2: humanized MAb1 antibody H-2140 (antibody, human IgG2, kappa, V domains shown)
VH: B1 VH with G44R
VL: B1 VL with E32S, K34G, L36T
notes: Human IgG2 / kappa constant regions; also called hMAb1-H4-type heavy chain + hMAb1-L1-type light chain
Take B2: the binding result in experiment [1] and in experiment [2] was “no binding (tested: 10 µg/mL)” each time.

B3: humanized MAb1 antibody H-2143 (antibody, human IgG2, kappa, V domains shown)
VH: B1 VH with G44R
VL: B1 VL
notes: Human IgG2 / kappa constant regions; also called hMAb1-H4-type heavy chain + hMAb1-L2-type light chain
For the molecule B3, the binding result in experiment [1] is given as “no binding (tested: 10 µg/mL)”.

(Values after patent US20150098945A1 (Daiichi Sankyo, published 2015).)
